How the values were obtained:
Test in all cases: ITC
H3(20-35)K27me3 peptide = target: H3(20-35)K27me3 peptide
H3(1-15)K4me3 peptide = target: H3(1-15)K4me3 peptide
[1] = target: H3(1-35)K4me3K27me3 doubly methylated peptide

Row | Substance | Kd (H3(20-35)K27me3 peptide) [µM] | Kd (H3(1-15)K4me3 peptide) [µM] | stoichiometry N [1]
1 | EARLY BOLTING IN SHORT DAY (EBS), full length (from UniProt F4JL28 1-234) (natural protein) | 49.8 | 86.8 | –
2 | EBS without the C-terminal autoinhibition loop (EBSΔC, 1-199) (from UniProt F4JL28 1-199) (domain or fragment) | – | 30.7 | 1
